In assay [1] the target is SNAP-tag-CXCR4 (Tag-lite labeled CXCR4 cells, Cisbio Bioassays) (UniProt P61073). The assay can be described thus: Tag-lite HTRF competition with 50 nM fluorescent SDF-1, Cheng-Prusoff.
Assay [2] has the same target. The assay can be described thus: Tag-lite HTRF competition with 50 nM fluorescent SDF-1 on Tag-lite labeled CXCR4 cells. (In general: Time-resolved FRET reads energy transfer from a long-lived donor to a nearby acceptor.)
Assay [3] addresses CXCR4 (human) (UniProt P61073). The assay can be described thus: flow cytometry on Jurkat cells, competition with fluorescein conjugated 12G5 (66.6 nM) as competitor. (In general: Flow cytometry measures light scatter and fluorescence of single cells or particles in a stream.)
Assay [4] concerns the target CXCR4 (human) (UniProt P61073). The assay can be described thus: flow cytometry on CXCR4 transfected CHO cells, 1 µg/ml antibody.
In assay [5] the target is CXCR4 (human) (UniProt P61073). The assay can be described thus: cell-based or functional assay.

As usually defined, the Ki is a measure of affinity in units of concentration, obtained from inhibition or displacement. What is called IC50 is the concentration at which inhibition is half-maximal. Higher therefore signals weaker potency.

Sequence of CXCR4 (human) (P61073 whole entry): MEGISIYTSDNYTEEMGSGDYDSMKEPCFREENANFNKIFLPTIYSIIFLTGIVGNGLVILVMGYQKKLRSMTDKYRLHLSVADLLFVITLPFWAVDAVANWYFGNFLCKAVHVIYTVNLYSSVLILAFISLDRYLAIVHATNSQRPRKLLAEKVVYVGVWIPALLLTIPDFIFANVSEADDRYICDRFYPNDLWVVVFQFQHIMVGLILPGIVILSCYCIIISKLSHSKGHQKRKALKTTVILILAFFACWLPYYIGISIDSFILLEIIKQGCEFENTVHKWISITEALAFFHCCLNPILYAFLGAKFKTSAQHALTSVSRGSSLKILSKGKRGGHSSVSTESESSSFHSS
Sequence of SNAP-tag-CXCR4 (Tag-lite labeled CXCR4 cells, Cisbio Bioassays) (P61073 whole entry): as above

B1: BLV1H12-beta BCCX2 HC 1 IgG (antibody, V domains shown)
VH: QVQLRESGPSLVKPSQTLSLTCTASGFSLSDKAVGWVRQAPGKALEWLGSIDTGGNTGYNPGLKSRLSITKDNSKSQVSLSVSSVTTEDSATYYCTSVHQETKKYQSYRKCRGGRRWCYQKSYTYNYEWHVDVWGQGLLVTVSS
VL: QAVLNQPSSVSGSLGQRVSITCSGSSSNVGNGYVSWYQLIPGSAPRTLIYGDTSRASGVPDRFSGSRSGNTATLTISSLQAEDEADYFCASAEDSSSNAVFGSGTTLTVLG
B1 returned a Ki in assay [1] of 2.12 nM. Also, the half-inhibitory concentration (IC50) in assay [2] is 9.58 nM; in assay [3] it was 39.3 nM. Also, in assay [4], the flow cytometry peak shift worked out at 73.8%. Further, the inhibition of SDF-1 induced migration of Ramos cells, EC50 in assay [5] worked out at 8.5 nM.

Values taken from patent US20160237156A1.
